Measured values as given in US20250019435A1 (ALBERT EINSTEIN COLLEGE OF MEDICINE, published 2025).

T1: PVR expressed on transduced cells (PVR-YFP) (UniProt P15151 21-417)
T1 construct: whole, on cells; On NIH 3T3 or Raji cells; also called PVR/3T3; PVR-YFP/3T3; not shown: YFP ('PVR-YFP ... fusion protein')
T1 sequence (looked up): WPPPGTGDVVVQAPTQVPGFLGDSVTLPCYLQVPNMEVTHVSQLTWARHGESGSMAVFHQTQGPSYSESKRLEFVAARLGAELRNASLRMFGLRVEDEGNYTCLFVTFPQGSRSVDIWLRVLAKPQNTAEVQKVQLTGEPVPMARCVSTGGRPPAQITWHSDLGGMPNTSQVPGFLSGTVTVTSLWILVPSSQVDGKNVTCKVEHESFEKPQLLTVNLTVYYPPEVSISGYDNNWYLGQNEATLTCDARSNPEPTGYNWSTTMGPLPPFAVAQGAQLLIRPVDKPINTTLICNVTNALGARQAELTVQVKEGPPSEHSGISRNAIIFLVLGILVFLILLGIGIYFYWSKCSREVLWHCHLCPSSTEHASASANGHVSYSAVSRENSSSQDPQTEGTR

T2: SHP-2 (human, UniProt Q06124 2-593)
T2 sequence (looked up): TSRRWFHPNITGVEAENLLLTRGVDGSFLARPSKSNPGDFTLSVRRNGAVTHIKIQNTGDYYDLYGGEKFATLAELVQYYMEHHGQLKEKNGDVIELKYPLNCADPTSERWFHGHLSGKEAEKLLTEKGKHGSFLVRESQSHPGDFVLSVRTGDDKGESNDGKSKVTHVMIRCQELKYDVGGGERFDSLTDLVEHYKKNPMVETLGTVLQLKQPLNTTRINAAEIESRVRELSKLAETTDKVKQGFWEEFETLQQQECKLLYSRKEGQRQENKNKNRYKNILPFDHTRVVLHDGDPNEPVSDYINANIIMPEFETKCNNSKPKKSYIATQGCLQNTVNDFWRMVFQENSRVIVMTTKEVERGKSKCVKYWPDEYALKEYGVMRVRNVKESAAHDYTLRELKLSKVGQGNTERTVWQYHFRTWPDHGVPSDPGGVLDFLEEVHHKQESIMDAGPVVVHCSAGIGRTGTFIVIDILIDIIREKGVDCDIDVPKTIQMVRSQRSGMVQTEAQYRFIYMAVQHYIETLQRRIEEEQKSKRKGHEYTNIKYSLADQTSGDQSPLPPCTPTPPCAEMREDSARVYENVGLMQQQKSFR


Tests used:
[1] = target: T1, PVR expressed on transduced cells …; assay: flow cytometry, PVR/3T3 cells preincubated with DNAM-1-His, then KIR2DL5-Ig
SHP-1 = SHP-1 (human, UniProt P29350 1-595); assay: co-immunoprecipitation with anti-KIR2DL5 from transduced primary NK cells with or without pervanadate, immunoblot
Sequence of SHP-1 (P29350 whole entry): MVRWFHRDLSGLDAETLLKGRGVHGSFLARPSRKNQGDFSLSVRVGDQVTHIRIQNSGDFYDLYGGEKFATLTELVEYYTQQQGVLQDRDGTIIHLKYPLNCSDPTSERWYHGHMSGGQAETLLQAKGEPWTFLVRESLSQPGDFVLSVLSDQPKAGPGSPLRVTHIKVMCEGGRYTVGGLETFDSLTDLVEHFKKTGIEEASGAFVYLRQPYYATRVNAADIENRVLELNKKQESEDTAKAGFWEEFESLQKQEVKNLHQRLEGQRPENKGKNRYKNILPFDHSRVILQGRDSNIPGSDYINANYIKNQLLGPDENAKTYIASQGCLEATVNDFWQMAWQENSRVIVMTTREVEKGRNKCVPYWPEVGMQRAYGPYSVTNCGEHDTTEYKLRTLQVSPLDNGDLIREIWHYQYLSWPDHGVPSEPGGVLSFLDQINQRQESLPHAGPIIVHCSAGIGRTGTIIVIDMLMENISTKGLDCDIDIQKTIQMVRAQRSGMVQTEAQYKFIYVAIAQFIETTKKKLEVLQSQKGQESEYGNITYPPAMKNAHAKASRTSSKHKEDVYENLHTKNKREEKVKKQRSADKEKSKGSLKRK
Method: (§1) FIG. 12A-12E: KIR2DL5 ITIM and ITSM mediated NK cell inhibition and suppressed downstream signaling. (A) Tyrosine (Y) in ITIM and ITSM of KIR2DL5 was mutated to phenylalanine (F). The KIR2DL5⁻ primary NK cells were transduced with WT KIR2DL5 or the indicated mutants, and then examined for protein expression with F8B30 (open) or mIgG1 (shaded). NC, negative control. Data are representative of 2 independent experiments. (B and C) Transduced primary NK cells were treated with (+) or without (−) pervanadate (VO₄) for 5 minutes. Cell lysates were immunoprecipitated with anti-KIR2DL5 antibodies. Phospho-tyrosine (4G10), SHP-1, SHP-2, and total KIR2DL5 were detected by immunoblots (B). Quantification of p-Tyr, SHP-1, and SHP-2 association with WT or mutant KIR2DL5 in VO₄-treated NK cells (C). WCL, whole-cell lysates. (D) Representative imaging of cell conjugates acquired upon the indicated transduced primary NK and PVR/Raji cell contact followed by staining with anti-KIR2DL5 mAb and DAPI. Scale bars: […]. (E) Lysis of scramble control or PVR^KO A427 (top) and Jurkat (bottom) by WT or mutant KIR2DL5-transduced primary NK cells at the indicated E/T ratios. Data are mean for duplicate measurements and representative of 3 independent experiments with 3 different donors. In A, and B, data are representative of 3 independent experiments. *P<0.05, **P<0.01, ***P<0.001, ****P<0.0001, by 1-way ANOVA (C), or paired Student's t test (D).
(§2) Coimmunoprecipitation and immunoblotting. NK92 cells or primary NK cells pretreated with or without 1 mM pervanadate (New England BioLabs) were lysed in Pierce immunoprecipitation lysis buffer supplemented with protease and phosphatase inhibitor cocktail (Thermo Fisher Scientific). Proteins from whole-cell lysis were further incubated with anti-KIR2DL5 antibodies and Dynabeads protein G (Thermo Fisher Scientific) for further immunoprecipitation. […]

SHP-2 = target: T2, SHP-2; assay: as above
Method: as §1, §2

[2] = target: T1, PVR expressed on transduced cells …; assay: confocal imaging of conjugates of transduced primary NK cells with PVR-YFP/Raji cells
Method: as §1, with “The” for “FIG. 12A-12E: KIR2DL5 ITIM and ITSM mediated NK cell inhibition and suppressed downstream signaling. (A) Tyrosine (Y) in ITIM and ITSM of KIR2DL5 was mutated to phenylalanine (F). The”
NK-Raji conjugation assay. […] Cell mixtures were then loaded onto poly-L-lysine-precoated slides and fixed with 4% formaldehyde at RT for 15 minutes. After blocking with 5% normal goat serum at RT for 1 hour, cells were stained with 20 µg/mL anti-KIR2DL5 antibodies (a mixture of 8 homemade clones) at 4° C. overnight and then with goat anti-mIgG (H+L) Alexa Flour 647 (Invitrogen) at RT for 2 hours. The cells were permeabilized by 0.1% Triton X-100 at RT for 15 minutes and stained with Alexa Flour Plus 405 Phalloidin (Life Technologies) for 1 hour at RT. The slides were then mounted by Gold Antifade Mountant without DAPI (Life Technologies). The mean pixel intensity of synapse and non-synapse was respectively measured and statistically analyzed. Images were acquired by Leica SP8 confocal microscope and processed by ImageJ (NIH).

binding result [1] | binding result (SHP-1) | binding result (SHP-2) | binding result [2] | Binder
binds | – | – | – | recombinant human DNAM-1-His tag protein (receptor, UniProt Q15762 19-247, looked up, Bought; also called CD226-His; not shown: His tag) EEVLWHTSVPFAENMSLECVYPSMGILTQVEWFKIGTQQDSIAIFSPTHGMVIRKPYAERVYFLNSTMASNNMTLFFRNASEDDVGYYSCSLYTYPQGTWQKVIQVVQSDSFEAAVPSNSHIVSEPGKNVTLTCQPQMTWPVQAVRWEKIQPRQIDLLTYCNLVHGRNFTSKFPRQIVSNCSHGRWSVIVIPDVTVSDSGLYRCYLQASAGENETFVMRLTVAEGKTDN
– | no binding | no binding | binds | Y298F/Y328F (receptor, also called KIR2DL5 Y298F/Y328F (ITIM and ITSM mutant) on transduced primary NK cells) receptor chain: HEGGQDKPLLSAWPSAVVPRGGHVTLLCRSRLGFTIFSLYKEDGVPVPELYNKIFWKSILMGPVTPAHAGTYRCRGSHPRSPIEWSAPSNPLVIVVTGLFGKPSLSAQPGPTVRTGENVTLSCSSRSSFDMYHLSREGRAHEPRLPAVPSVNGTFQADFPLGPATHGGTYTCFGSLHDSPYEWSDPSDPLLVSVTGNSSSSSSSPTEPSSKTGIRRHLHILIGTSVAIILFIILFFFLLHCCCSNKKNAAVMDQEPAGDRTVNREDSDDQDPQEVTFAQLDHCVFTQTKITSPSQRPKTPPTDTTMFMELPNAKPRSLSPAHKHHSQALRGSSRETTALSQNRVASSHVPAAGI
